# ± gives the uncertainty stated by the source.
# B1: Retinoic acid receptor RXR-alpha, residues 132 to 208; numbered along this chain, P19793 (parent)
# chain: KHICAICGDRSSGKHYGVYSCEGCKGFFKRTVRKDLTYTCRDNKDCLIDKRQRNRCQYCRYQKCLAMGMKREAVQEE
# Variants of: B1
# Assay: abundance fitness (aPCA) (normalised: wild type 0, dead -1); higher = more abundant; growth selection in yeast, the domain comes from the species named
# Details: Homo sapiens
row,Variant,abundance fitness
1,KHICAICEDRSSGKHYGVYSCEGCKGFFKRTVRKDLTYTCRDNKDCLIDKRQRNRCQYCRYQKCLAMGMKREAVQEE [G8E],0.005 ± 0.069
2,KHICAICHDRSSGKHYGVYSCEGCKGFFKRTVRKDLTYTCRDNKDCLIDKRQRNRCQYCRYQKCLAMGMKREAVQEE [G8H],-0.062 ± 0.037
3,KHICAICDDRSSGKHYGVYSCEGCKGFFKRTVRKDLTYTCRDNKDCLIDKRQRNRCQYCRYQKCLAMGMKREAVQEE [G8D],-0.04 ± 0.039
4,KHICAICCDRSSGKHYGVYSCEGCKGFFKRTVRKDLTYTCRDNKDCLIDKRQRNRCQYCRYQKCLAMGMKREAVQEE [G8C],-0.027 ± 0.045
5,KHICAICFDRSSGKHYGVYSCEGCKGFFKRTVRKDLTYTCRDNKDCLIDKRQRNRCQYCRYQKCLAMGMKREAVQEE [G8F],0.006 ± 0.036
6,KHICAICKDRSSGKHYGVYSCEGCKGFFKRTVRKDLTYTCRDNKDCLIDKRQRNRCQYCRYQKCLAMGMKREAVQEE [G8K],-0.053 ± 0.05
7,KHICAICADRSSGKHYGVYSCEGCKGFFKRTVRKDLTYTCRDNKDCLIDKRQRNRCQYCRYQKCLAMGMKREAVQEE [G8A],-0.027 ± 0.037
8,KHICAIMGDRSSGKHYGVYSCEGCKGFFKRTVRKDLTYTCRDNKDCLIDKRQRNRCQYCRYQKCLAMGMKREAVQEE [C7M],-0.867 ± 0.14
9,KHICAINGDRSSGKHYGVYSCEGCKGFFKRTVRKDLTYTCRDNKDCLIDKRQRNRCQYCRYQKCLAMGMKREAVQEE [C7N],-0.728 ± 0.07
10,KHICAIAGDRSSGKHYGVYSCEGCKGFFKRTVRKDLTYTCRDNKDCLIDKRQRNRCQYCRYQKCLAMGMKREAVQEE [C7A],-0.919 ± 0.11
11,KHICAISGDRSSGKHYGVYSCEGCKGFFKRTVRKDLTYTCRDNKDCLIDKRQRNRCQYCRYQKCLAMGMKREAVQEE [C7S],-0.944 ± 0.067
12,KHICAIHGDRSSGKHYGVYSCEGCKGFFKRTVRKDLTYTCRDNKDCLIDKRQRNRCQYCRYQKCLAMGMKREAVQEE [C7H],-0.942 ± 0.1
13,KHICAIYGDRSSGKHYGVYSCEGCKGFFKRTVRKDLTYTCRDNKDCLIDKRQRNRCQYCRYQKCLAMGMKREAVQEE [C7Y],-0.917 ± 0.08
14,KHICAILGDRSSGKHYGVYSCEGCKGFFKRTVRKDLTYTCRDNKDCLIDKRQRNRCQYCRYQKCLAMGMKREAVQEE [C7L],-1.23 ± 0.12
15,KHICAIEGDRSSGKHYGVYSCEGCKGFFKRTVRKDLTYTCRDNKDCLIDKRQRNRCQYCRYQKCLAMGMKREAVQEE [C7E],-0.769 ± 0.13
16,KHICAIPGDRSSGKHYGVYSCEGCKGFFKRTVRKDLTYTCRDNKDCLIDKRQRNRCQYCRYQKCLAMGMKREAVQEE [C7P],-0.961 ± 0.093
17,KHICAIIGDRSSGKHYGVYSCEGCKGFFKRTVRKDLTYTCRDNKDCLIDKRQRNRCQYCRYQKCLAMGMKREAVQEE [C7I],-1.24 ± 0.16
18,KHICAIGGDRSSGKHYGVYSCEGCKGFFKRTVRKDLTYTCRDNKDCLIDKRQRNRCQYCRYQKCLAMGMKREAVQEE [C7G],-0.921 ± 0.1
19,KHICAIKGDRSSGKHYGVYSCEGCKGFFKRTVRKDLTYTCRDNKDCLIDKRQRNRCQYCRYQKCLAMGMKREAVQEE [C7K],-1.29 ± 0.22
20,KHICAIQGDRSSGKHYGVYSCEGCKGFFKRTVRKDLTYTCRDNKDCLIDKRQRNRCQYCRYQKCLAMGMKREAVQEE [C7Q],-0.988 ± 0.15
21,KHICAIFGDRSSGKHYGVYSCEGCKGFFKRTVRKDLTYTCRDNKDCLIDKRQRNRCQYCRYQKCLAMGMKREAVQEE [C7F],-1.19 ± 0.14
22,KHICAIDGDRSSGKHYGVYSCEGCKGFFKRTVRKDLTYTCRDNKDCLIDKRQRNRCQYCRYQKCLAMGMKREAVQEE [C7D],-0.357 ± 0.053
23,KHICAITGDRSSGKHYGVYSCEGCKGFFKRTVRKDLTYTCRDNKDCLIDKRQRNRCQYCRYQKCLAMGMKREAVQEE [C7T],-0.981 ± 0.083
24,KHICAIWGDRSSGKHYGVYSCEGCKGFFKRTVRKDLTYTCRDNKDCLIDKRQRNRCQYCRYQKCLAMGMKREAVQEE [C7W],-1.22 ± 0.23

row,Variant,abundance fitness
1,KHICAIVGDRSSGKHYGVYSCEGCKGFFKRTVRKDLTYTCRDNKDCLIDKRQRNRCQYCRYQKCLAMGMKREAVQEE [C7V],-1.11 ± 0.14
2,KHIWAICGDRSSGKHYGVYSCEGCKGFFKRTVRKDLTYTCRDNKDCLIDKRQRNRCQYCRYQKCLAMGMKREAVQEE [C4W],-1.3 ± 0.19
3,KHIGAICGDRSSGKHYGVYSCEGCKGFFKRTVRKDLTYTCRDNKDCLIDKRQRNRCQYCRYQKCLAMGMKREAVQEE [C4G],-0.914 ± 0.059
4,KHIRAICGDRSSGKHYGVYSCEGCKGFFKRTVRKDLTYTCRDNKDCLIDKRQRNRCQYCRYQKCLAMGMKREAVQEE [C4R],-1.02 ± 0.066
5,KHIYAICGDRSSGKHYGVYSCEGCKGFFKRTVRKDLTYTCRDNKDCLIDKRQRNRCQYCRYQKCLAMGMKREAVQEE [C4Y],-0.875 ± 0.099
6,KHIHAICGDRSSGKHYGVYSCEGCKGFFKRTVRKDLTYTCRDNKDCLIDKRQRNRCQYCRYQKCLAMGMKREAVQEE [C4H],-0.512 ± 0.073
7,KHIKAICGDRSSGKHYGVYSCEGCKGFFKRTVRKDLTYTCRDNKDCLIDKRQRNRCQYCRYQKCLAMGMKREAVQEE [C4K],-1.23 ± 0.2
8,KHIVAICGDRSSGKHYGVYSCEGCKGFFKRTVRKDLTYTCRDNKDCLIDKRQRNRCQYCRYQKCLAMGMKREAVQEE [C4V],-1.03 ± 0.086
9,KHISAICGDRSSGKHYGVYSCEGCKGFFKRTVRKDLTYTCRDNKDCLIDKRQRNRCQYCRYQKCLAMGMKREAVQEE [C4S],-1.03 ± 0.076
10,KHIEAICGDRSSGKHYGVYSCEGCKGFFKRTVRKDLTYTCRDNKDCLIDKRQRNRCQYCRYQKCLAMGMKREAVQEE [C4E],-0.866 ± 0.11
11,KHIFAICGDRSSGKHYGVYSCEGCKGFFKRTVRKDLTYTCRDNKDCLIDKRQRNRCQYCRYQKCLAMGMKREAVQEE [C4F],-0.955 ± 0.11
12,KHIMAICGDRSSGKHYGVYSCEGCKGFFKRTVRKDLTYTCRDNKDCLIDKRQRNRCQYCRYQKCLAMGMKREAVQEE [C4M],-1.08 ± 0.16
13,KHITAICGDRSSGKHYGVYSCEGCKGFFKRTVRKDLTYTCRDNKDCLIDKRQRNRCQYCRYQKCLAMGMKREAVQEE [C4T],-0.757 ± 0.063
14,KHILAICGDRSSGKHYGVYSCEGCKGFFKRTVRKDLTYTCRDNKDCLIDKRQRNRCQYCRYQKCLAMGMKREAVQEE [C4L],-0.999 ± 0.076
15,KHIQAICGDRSSGKHYGVYSCEGCKGFFKRTVRKDLTYTCRDNKDCLIDKRQRNRCQYCRYQKCLAMGMKREAVQEE [C4Q],-0.614 ± 0.088
16,KHINAICGDRSSGKHYGVYSCEGCKGFFKRTVRKDLTYTCRDNKDCLIDKRQRNRCQYCRYQKCLAMGMKREAVQEE [C4N],-0.936 ± 0.12
17,KHIPAICGDRSSGKHYGVYSCEGCKGFFKRTVRKDLTYTCRDNKDCLIDKRQRNRCQYCRYQKCLAMGMKREAVQEE [C4P],-0.99 ± 0.1
18,KHICGICGDRSSGKHYGVYSCEGCKGFFKRTVRKDLTYTCRDNKDCLIDKRQRNRCQYCRYQKCLAMGMKREAVQEE [A5G],-0.045 ± 0.027
19,KHICMICGDRSSGKHYGVYSCEGCKGFFKRTVRKDLTYTCRDNKDCLIDKRQRNRCQYCRYQKCLAMGMKREAVQEE [A5M],0.036 ± 0.048
20,KHICIICGDRSSGKHYGVYSCEGCKGFFKRTVRKDLTYTCRDNKDCLIDKRQRNRCQYCRYQKCLAMGMKREAVQEE [A5I],0.055 ± 0.084
21,KHICHICGDRSSGKHYGVYSCEGCKGFFKRTVRKDLTYTCRDNKDCLIDKRQRNRCQYCRYQKCLAMGMKREAVQEE [A5H],0.044 ± 0.063
22,KHICVICGDRSSGKHYGVYSCEGCKGFFKRTVRKDLTYTCRDNKDCLIDKRQRNRCQYCRYQKCLAMGMKREAVQEE [A5V],-0.054 ± 0.033
23,KHICNICGDRSSGKHYGVYSCEGCKGFFKRTVRKDLTYTCRDNKDCLIDKRQRNRCQYCRYQKCLAMGMKREAVQEE [A5N],-0.022 ± 0.055
24,KHICWICGDRSSGKHYGVYSCEGCKGFFKRTVRKDLTYTCRDNKDCLIDKRQRNRCQYCRYQKCLAMGMKREAVQEE [A5W],0.03 ± 0.042

row,Variant,abundance fitness
1,KHICDICGDRSSGKHYGVYSCEGCKGFFKRTVRKDLTYTCRDNKDCLIDKRQRNRCQYCRYQKCLAMGMKREAVQEE [A5D],0.016 ± 0.044
2,KHICTICGDRSSGKHYGVYSCEGCKGFFKRTVRKDLTYTCRDNKDCLIDKRQRNRCQYCRYQKCLAMGMKREAVQEE [A5T],0.045 ± 0.049
3,KHICLICGDRSSGKHYGVYSCEGCKGFFKRTVRKDLTYTCRDNKDCLIDKRQRNRCQYCRYQKCLAMGMKREAVQEE [A5L],0.037 ± 0.037
4,KHICEICGDRSSGKHYGVYSCEGCKGFFKRTVRKDLTYTCRDNKDCLIDKRQRNRCQYCRYQKCLAMGMKREAVQEE [A5E],0.04 ± 0.036
5,KHICSICGDRSSGKHYGVYSCEGCKGFFKRTVRKDLTYTCRDNKDCLIDKRQRNRCQYCRYQKCLAMGMKREAVQEE [A5S],0.02 ± 0.036
6,KHICQICGDRSSGKHYGVYSCEGCKGFFKRTVRKDLTYTCRDNKDCLIDKRQRNRCQYCRYQKCLAMGMKREAVQEE [A5Q],0.036 ± 0.046
7,KHICPICGDRSSGKHYGVYSCEGCKGFFKRTVRKDLTYTCRDNKDCLIDKRQRNRCQYCRYQKCLAMGMKREAVQEE [A5P],-0.074 ± 0.052
8,KHICFICGDRSSGKHYGVYSCEGCKGFFKRTVRKDLTYTCRDNKDCLIDKRQRNRCQYCRYQKCLAMGMKREAVQEE [A5F],0.171 ± 0.065
9,KHICRICGDRSSGKHYGVYSCEGCKGFFKRTVRKDLTYTCRDNKDCLIDKRQRNRCQYCRYQKCLAMGMKREAVQEE [A5R],0.044 ± 0.032
10,KHICASCGDRSSGKHYGVYSCEGCKGFFKRTVRKDLTYTCRDNKDCLIDKRQRNRCQYCRYQKCLAMGMKREAVQEE [I6S],-0.438 ± 0.036
11,KHICAGCGDRSSGKHYGVYSCEGCKGFFKRTVRKDLTYTCRDNKDCLIDKRQRNRCQYCRYQKCLAMGMKREAVQEE [I6G],-0.386 ± 0.068
12,KHICARCGDRSSGKHYGVYSCEGCKGFFKRTVRKDLTYTCRDNKDCLIDKRQRNRCQYCRYQKCLAMGMKREAVQEE [I6R],-0.687 ± 0.065
13,KHICAQCGDRSSGKHYGVYSCEGCKGFFKRTVRKDLTYTCRDNKDCLIDKRQRNRCQYCRYQKCLAMGMKREAVQEE [I6Q],-0.909 ± 0.11
14,KHICAYCGDRSSGKHYGVYSCEGCKGFFKRTVRKDLTYTCRDNKDCLIDKRQRNRCQYCRYQKCLAMGMKREAVQEE [I6Y],-0.881 ± 0.085
15,KHICALCGDRSSGKHYGVYSCEGCKGFFKRTVRKDLTYTCRDNKDCLIDKRQRNRCQYCRYQKCLAMGMKREAVQEE [I6L],-0.124 ± 0.03
16,KHICANCGDRSSGKHYGVYSCEGCKGFFKRTVRKDLTYTCRDNKDCLIDKRQRNRCQYCRYQKCLAMGMKREAVQEE [I6N],-0.439 ± 0.048
17,KHICAKCGDRSSGKHYGVYSCEGCKGFFKRTVRKDLTYTCRDNKDCLIDKRQRNRCQYCRYQKCLAMGMKREAVQEE [I6K],-0.881 ± 0.098
18,KHICACCGDRSSGKHYGVYSCEGCKGFFKRTVRKDLTYTCRDNKDCLIDKRQRNRCQYCRYQKCLAMGMKREAVQEE [I6C],0.008 ± 0.048
19,KHICADCGDRSSGKHYGVYSCEGCKGFFKRTVRKDLTYTCRDNKDCLIDKRQRNRCQYCRYQKCLAMGMKREAVQEE [I6D],-0.729 ± 0.097
20,KHICAACGDRSSGKHYGVYSCEGCKGFFKRTVRKDLTYTCRDNKDCLIDKRQRNRCQYCRYQKCLAMGMKREAVQEE [I6A],-0.145 ± 0.038
21,KHICAMCGDRSSGKHYGVYSCEGCKGFFKRTVRKDLTYTCRDNKDCLIDKRQRNRCQYCRYQKCLAMGMKREAVQEE [I6M],-0.038 ± 0.039
22,KHICATCGDRSSGKHYGVYSCEGCKGFFKRTVRKDLTYTCRDNKDCLIDKRQRNRCQYCRYQKCLAMGMKREAVQEE [I6T],-0.064 ± 0.033
23,KHICAHCGDRSSGKHYGVYSCEGCKGFFKRTVRKDLTYTCRDNKDCLIDKRQRNRCQYCRYQKCLAMGMKREAVQEE [I6H],-0.731 ± 0.072

# Reference: the Human Domainome abundance scans (Beltran et al. 2025)
